Results: patent US20080280333

Target: T1, GlxR (Corynebacterium glutamicum) (UniProt Q79VI7)
T1 sequence: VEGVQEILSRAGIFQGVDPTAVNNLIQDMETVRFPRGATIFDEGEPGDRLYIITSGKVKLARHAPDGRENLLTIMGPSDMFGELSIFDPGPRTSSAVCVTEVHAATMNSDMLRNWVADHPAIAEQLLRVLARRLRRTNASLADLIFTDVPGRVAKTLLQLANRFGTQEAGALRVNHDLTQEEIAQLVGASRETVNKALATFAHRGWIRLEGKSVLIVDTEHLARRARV
Test: cell_activity

PaceB-lacZYA reporter (aceB promoter region)
activity (mU beta-galactosidase) (E. coli DH5alphaF'-145 with pSL145, 27 mU with empty vector pMT1, repression): 2.5 | activity (beta-galactosidase activity) (E. coli HL994, chromosomal PaceB-lacZYA, 237 with empty vector): 128
